Numbered stars: 1 amine (or outer) side, 2 acyl side, 3 side chain; on linkers, the order of the positions; unused ones are H or OH. Bridge positions count the residues as written; N and C are the ends. Side chains are listed from the residue outwards. Ends that are not written are not given here. * marks the point of attachment. C20 diacid = O=C(O)CCCCCCCCCCCCCCCCCCC(=O)*; γGlu = O=C(O)[C@H](CCC(=O)[*:2])N[*:1]; AEEA = NCCOCCOCC(=O)O
T1: human amylin receptor (amylin 3(a) receptor: human calcitonin receptor co-expressed with RAMP-3) (human, UniProt P30988 25-474; O60896 24-148, limits assumed)
T1 sequence (looked up) 1: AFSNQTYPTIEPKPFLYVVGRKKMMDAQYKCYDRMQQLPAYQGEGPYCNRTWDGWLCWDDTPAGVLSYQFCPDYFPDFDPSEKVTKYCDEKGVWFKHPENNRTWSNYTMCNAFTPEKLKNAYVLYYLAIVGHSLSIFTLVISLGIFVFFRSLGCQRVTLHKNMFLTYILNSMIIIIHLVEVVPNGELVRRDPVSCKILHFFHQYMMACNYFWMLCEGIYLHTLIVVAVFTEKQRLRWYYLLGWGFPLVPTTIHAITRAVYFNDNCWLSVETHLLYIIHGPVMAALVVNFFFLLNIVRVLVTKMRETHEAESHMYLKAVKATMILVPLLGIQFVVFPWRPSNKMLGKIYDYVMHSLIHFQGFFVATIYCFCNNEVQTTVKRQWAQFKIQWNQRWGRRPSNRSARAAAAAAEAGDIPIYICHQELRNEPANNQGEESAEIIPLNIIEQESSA
T1 sequence (looked up) 2: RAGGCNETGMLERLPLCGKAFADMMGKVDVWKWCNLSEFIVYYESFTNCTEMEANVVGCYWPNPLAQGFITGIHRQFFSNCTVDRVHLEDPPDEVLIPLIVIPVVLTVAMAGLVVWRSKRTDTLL

T2: human calcitonin receptor (human, UniProt P30988 25-474)
T2 sequence (looked up): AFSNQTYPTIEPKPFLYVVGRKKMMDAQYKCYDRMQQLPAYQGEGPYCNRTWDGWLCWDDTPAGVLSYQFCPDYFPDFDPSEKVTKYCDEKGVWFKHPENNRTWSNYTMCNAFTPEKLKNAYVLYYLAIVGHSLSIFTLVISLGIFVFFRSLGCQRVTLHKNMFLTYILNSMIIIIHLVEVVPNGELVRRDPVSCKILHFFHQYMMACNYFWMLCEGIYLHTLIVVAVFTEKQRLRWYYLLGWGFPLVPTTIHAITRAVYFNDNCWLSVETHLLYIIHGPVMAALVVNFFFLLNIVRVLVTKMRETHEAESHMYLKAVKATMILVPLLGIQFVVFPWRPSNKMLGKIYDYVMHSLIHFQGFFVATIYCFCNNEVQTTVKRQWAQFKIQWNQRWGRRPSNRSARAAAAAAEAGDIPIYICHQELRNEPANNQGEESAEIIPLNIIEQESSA

B1: N^ε1-[2-[2-[2-[[2-[2-[2-[[(4S)-4-carboxy-4-(19-carboxynonadecanoylamino)butanoyl]amino]ethoxy]ethoxy]acetyl]amino]ethoxy]ethoxy]acetyl]-[Arg17,Pro21,Pro27,Pro31 … (peptide)
peptide: K([AEEA-AEEA-γGlu-C20 diacid])CNTATCATQRLANFLRHSSPNFGAIPSSTPVGSNTY-NH2
modifications: disulfide 2-7; N-terminus assumed
SMILES: CC[C@H](C)[C@H](NC(=O)[C@H](C)NC(=O)CNC(=O)[C@H](Cc1ccccc1)NC(=O)[C@H](CC(N)=O)NC(=O)[C@@H]1CCCN1C(=O)[C@H](CO)NC(=O)[C@H](CO)NC(=O)[C@H](Cc1c[nH]cn1)NC(=O)[C@H](CCCNC(=N)N)NC(=O)[C@H](CC(C)C)NC(=O)[C@H](Cc1ccccc1)NC(=O)[C@H](CC(N)=O)NC(=O)[C@H](C)NC(=O)[C@H](CC(C)C)NC(=O)[C@H](CCCNC(=N)N)NC(=O)[C@H](CCC(N)=O)NC(=O)[C@@H](NC(=O)[C@H](C)NC(=O)[C@@H]1CSSC[C@H](NC(=O)[C@@H](N)CCCCNC(=O)COCCOCCNC(=O)COCCOCCNC(=O)CC[C@H](NC(=O)CCCCCCCCCCCCCCCCCCC(=O)O)C(=O)O)C(=O)N[C@@H](CC(N)=O)C(=O)N[C@@H]([C@@H](C)O)C(=O)N[C@@H](C)C(=O)N[C@@H]([C@@H](C)O)C(=O)N1)[C@@H](C)O)C(=O)N1CCC[C@H]1C(=O)N[C@@H](CO)C(=O)N[C@@H](CO)C(=O)N[C@H](C(=O)N1CCC[C@H]1C(=O)N[C@H](C(=O)NCC(=O)N[C@@H](CO)C(=O)N[C@@H](CC(N)=O)C(=O)N[C@H](C(=O)N[C@@H](Cc1ccc(O)cc1)C(N)=O)[C@@H](C)O)C(C)C)[C@@H](C)O
notes: also called compound 96
B2: N^ε1-[2-[2-[2-[[(4S)-4-carboxy-4-(19-carboxynonadecanoylamino)butanoyl]amino]ethoxy]ethoxy]acetyl]-[Ala14,Arg17,Pro21,Pro27,Pro31]-h-amylin (peptide)
peptide: K([AEEA-γGlu-C20 diacid])CNTATCATQRLAAFLRHSSPNFGAIPSSTPVGSNTY-NH2
modifications: disulfide 2-7; N-terminus assumed
SMILES: CC[C@H](C)[C@H](NC(=O)[C@H](C)NC(=O)CNC(=O)[C@H](Cc1ccccc1)NC(=O)[C@H](CC(N)=O)NC(=O)[C@@H]1CCCN1C(=O)[C@H](CO)NC(=O)[C@H](CO)NC(=O)[C@H](Cc1c[nH]cn1)NC(=O)[C@H](CCCNC(=N)N)NC(=O)[C@H](CC(C)C)NC(=O)[C@H](Cc1ccccc1)NC(=O)[C@H](C)NC(=O)[C@H](C)NC(=O)[C@H](CC(C)C)NC(=O)[C@H](CCCNC(=N)N)NC(=O)[C@H](CCC(N)=O)NC(=O)[C@@H](NC(=O)[C@H](C)NC(=O)[C@@H]1CSSC[C@H](NC(=O)[C@@H](N)CCCCNC(=O)COCCOCCNC(=O)CC[C@H](NC(=O)CCCCCCCCCCCCCCCCCCC(=O)O)C(=O)O)C(=O)N[C@@H](CC(N)=O)C(=O)N[C@@H]([C@@H](C)O)C(=O)N[C@@H](C)C(=O)N[C@@H]([C@@H](C)O)C(=O)N1)[C@@H](C)O)C(=O)N1CCC[C@H]1C(=O)N[C@@H](CO)C(=O)N[C@@H](CO)C(=O)N[C@H](C(=O)N1CCC[C@H]1C(=O)N[C@H](C(=O)NCC(=O)N[C@@H](CO)C(=O)N[C@@H](CC(N)=O)C(=O)N[C@H](C(=O)N[C@@H](Cc1ccc(O)cc1)C(N)=O)[C@@H](C)O)C(C)C)[C@@H](C)O
notes: also called compound 72
B3: N^ε1-[2-[2-[2-[[(4S)-4-carboxy-4-(19-carboxynonadecanoylamino)butanoyl]amino]ethoxy]ethoxy]acetyl]-[Arg14,Arg17,Pro21,Pro27,Pro31]-h-amylin (peptide)
peptide: K([AEEA-γGlu-C20 diacid])CNTATCATQRLARFLRHSSPNFGAIPSSTPVGSNTY-NH2
modifications: disulfide 2-7; N-terminus assumed
SMILES: CC[C@H](C)[C@H](NC(=O)[C@H](C)NC(=O)CNC(=O)[C@H](Cc1ccccc1)NC(=O)[C@H](CC(N)=O)NC(=O)[C@@H]1CCCN1C(=O)[C@H](CO)NC(=O)[C@H](CO)NC(=O)[C@H](Cc1c[nH]cn1)NC(=O)[C@H](CCCNC(=N)N)NC(=O)[C@H](CC(C)C)NC(=O)[C@H](Cc1ccccc1)NC(=O)[C@H](CCCNC(=N)N)NC(=O)[C@H](C)NC(=O)[C@H](CC(C)C)NC(=O)[C@H](CCCNC(=N)N)NC(=O)[C@H](CCC(N)=O)NC(=O)[C@@H](NC(=O)[C@H](C)NC(=O)[C@@H]1CSSC[C@H](NC(=O)[C@@H](N)CCCCNC(=O)COCCOCCNC(=O)CC[C@H](NC(=O)CCCCCCCCCCCCCCCCCCC(=O)O)C(=O)O)C(=O)N[C@@H](CC(N)=O)C(=O)N[C@@H]([C@@H](C)O)C(=O)N[C@@H](C)C(=O)N[C@@H]([C@@H](C)O)C(=O)N1)[C@@H](C)O)C(=O)N1CCC[C@H]1C(=O)N[C@@H](CO)C(=O)N[C@@H](CO)C(=O)N[C@H](C(=O)N1CCC[C@H]1C(=O)N[C@H](C(=O)NCC(=O)N[C@@H](CO)C(=O)N[C@@H](CC(N)=O)C(=O)N[C@H](C(=O)N[C@@H](Cc1ccc(O)cc1)C(N)=O)[C@@H](C)O)C(C)C)[C@@H](C)O
notes: also called compound 64
B4: N^ε1-[2-[2-[2-[[(4S)-4-carboxy-4-(19-carboxynonadecanoylamino)butanoyl]amino]ethoxy]ethoxy]acetyl]-[Arg14,Arg17,Pro21,Pro27]-h-amylin (peptide)
peptide: K([AEEA-γGlu-C20 diacid])CNTATCATQRLARFLRHSSPNFGAIPSSTNVGSNTY-NH2
modifications: disulfide 2-7; N-terminus assumed
SMILES: CC[C@H](C)[C@H](NC(=O)[C@H](C)NC(=O)CNC(=O)[C@H](Cc1ccccc1)NC(=O)[C@H](CC(N)=O)NC(=O)[C@@H]1CCCN1C(=O)[C@H](CO)NC(=O)[C@H](CO)NC(=O)[C@H](Cc1c[nH]cn1)NC(=O)[C@H](CCCNC(=N)N)NC(=O)[C@H](CC(C)C)NC(=O)[C@H](Cc1ccccc1)NC(=O)[C@H](CCCNC(=N)N)NC(=O)[C@H](C)NC(=O)[C@H](CC(C)C)NC(=O)[C@H](CCCNC(=N)N)NC(=O)[C@H](CCC(N)=O)NC(=O)[C@@H](NC(=O)[C@H](C)NC(=O)[C@@H]1CSSC[C@H](NC(=O)[C@@H](N)CCCCNC(=O)COCCOCCNC(=O)CC[C@H](NC(=O)CCCCCCCCCCCCCCCCCCC(=O)O)C(=O)O)C(=O)N[C@@H](CC(N)=O)C(=O)N[C@@H]([C@@H](C)O)C(=O)N[C@@H](C)C(=O)N[C@@H]([C@@H](C)O)C(=O)N1)[C@@H](C)O)C(=O)N1CCC[C@H]1C(=O)N[C@@H](CO)C(=O)N[C@@H](CO)C(=O)N[C@H](C(=O)N[C@@H](CC(N)=O)C(=O)N[C@H](C(=O)NCC(=O)N[C@@H](CO)C(=O)N[C@@H](CC(N)=O)C(=O)N[C@H](C(=O)N[C@@H](Cc1ccc(O)cc1)C(N)=O)[C@@H](C)O)C(C)C)[C@@H](C)O
notes: also called compound 82
B5: N^ε1-[2-[2-[2-[[(4S)-4-carboxy-4-(19-carboxynonadecanoylamino)butanoyl]amino]ethoxy]ethoxy]acetyl]-[Arg17,Pro21,Pro27,Arg34]-h-amylin (peptide)
peptide: K([AEEA-γGlu-C20 diacid])CNTATCATQRLANFLRHSSPNFGAIPSSTNVGRNTY-NH2
modifications: disulfide 2-7; N-terminus assumed
SMILES: CC[C@H](C)[C@H](NC(=O)[C@H](C)NC(=O)CNC(=O)[C@H](Cc1ccccc1)NC(=O)[C@H](CC(N)=O)NC(=O)[C@@H]1CCCN1C(=O)[C@H](CO)NC(=O)[C@H](CO)NC(=O)[C@H](Cc1c[nH]cn1)NC(=O)[C@H](CCCNC(=N)N)NC(=O)[C@H](CC(C)C)NC(=O)[C@H](Cc1ccccc1)NC(=O)[C@H](CC(N)=O)NC(=O)[C@H](C)NC(=O)[C@H](CC(C)C)NC(=O)[C@H](CCCNC(=N)N)NC(=O)[C@H](CCC(N)=O)NC(=O)[C@@H](NC(=O)[C@H](C)NC(=O)[C@@H]1CSSC[C@H](NC(=O)[C@@H](N)CCCCNC(=O)COCCOCCNC(=O)CC[C@H](NC(=O)CCCCCCCCCCCCCCCCCCC(=O)O)C(=O)O)C(=O)N[C@@H](CC(N)=O)C(=O)N[C@@H]([C@@H](C)O)C(=O)N[C@@H](C)C(=O)N[C@@H]([C@@H](C)O)C(=O)N1)[C@@H](C)O)C(=O)N1CCC[C@H]1C(=O)N[C@@H](CO)C(=O)N[C@@H](CO)C(=O)N[C@H](C(=O)N[C@@H](CC(N)=O)C(=O)N[C@H](C(=O)NCC(=O)N[C@@H](CCCNC(=N)N)C(=O)N[C@@H](CC(N)=O)C(=O)N[C@H](C(=O)N[C@@H](Cc1ccc(O)cc1)C(N)=O)[C@@H](C)O)C(C)C)[C@@H](C)O
notes: also called compound 78
B6: N^ε1-[2-[2-[2-[[(4S)-4-carboxy-4-(19-carboxynonadecanoylamino)butanoyl]amino]ethoxy]ethoxy]acetyl]-[Arg17,Pro21,Pro27,His34]-h-amylin (peptide)
peptide: K([AEEA-γGlu-C20 diacid])CNTATCATQRLANFLRHSSPNFGAIPSSTNVGHNTY-NH2
modifications: disulfide 2-7; N-terminus assumed
SMILES: CC[C@H](C)[C@H](NC(=O)[C@H](C)NC(=O)CNC(=O)[C@H](Cc1ccccc1)NC(=O)[C@H](CC(N)=O)NC(=O)[C@@H]1CCCN1C(=O)[C@H](CO)NC(=O)[C@H](CO)NC(=O)[C@H](Cc1c[nH]cn1)NC(=O)[C@H](CCCNC(=N)N)NC(=O)[C@H](CC(C)C)NC(=O)[C@H](Cc1ccccc1)NC(=O)[C@H](CC(N)=O)NC(=O)[C@H](C)NC(=O)[C@H](CC(C)C)NC(=O)[C@H](CCCNC(=N)N)NC(=O)[C@H](CCC(N)=O)NC(=O)[C@@H](NC(=O)[C@H](C)NC(=O)[C@@H]1CSSC[C@H](NC(=O)[C@@H](N)CCCCNC(=O)COCCOCCNC(=O)CC[C@H](NC(=O)CCCCCCCCCCCCCCCCCCC(=O)O)C(=O)O)C(=O)N[C@@H](CC(N)=O)C(=O)N[C@@H]([C@@H](C)O)C(=O)N[C@@H](C)C(=O)N[C@@H]([C@@H](C)O)C(=O)N1)[C@@H](C)O)C(=O)N1CCC[C@H]1C(=O)N[C@@H](CO)C(=O)N[C@@H](CO)C(=O)N[C@H](C(=O)N[C@@H](CC(N)=O)C(=O)N[C@H](C(=O)NCC(=O)N[C@@H](Cc1c[nH]cn1)C(=O)N[C@@H](CC(N)=O)C(=O)N[C@H](C(=O)N[C@@H](Cc1ccc(O)cc1)C(N)=O)[C@@H](C)O)C(C)C)[C@@H](C)O
notes: also called compound 76

Experiments:
[1] = biological target: T1, human amylin receptor (amylin 3(a) …); experiment: cell-based or functional assay
[2] = biological target: T2, human calcitonin receptor; experiment: cell-based or functional assay

Row | Binder | hAmylin-R funct. EC50 [1] | hCTR funct. EC50 [2] | Ratio hCT/hAmylin funct. [1]
1 | B1 | 0.181 nM | 3.8 nM | 
2 | B2 | 0.106 nM | 4.76 nM | 
3 | B3 | 0.378 nM | 22.9 nM | 
4 | B4 | 0.215 nM | 12.7 nM | 59.2
5 | B5 | 0.316 nM | 8.17 nM | 
6 | B6 | 0.297 nM | 7.37 nM | 

Reference: US20140087995A1 (published 2014)
